Source: patent US8008452B2, “Phosphorylated Ndr kinase” (Novartis Forschungesstiftung, Zweigniederlassung Friedrich …, priority 2002, dated 2011)

Tests used:
HA-NDR1 = HA-NDR1 kinase assay on 12CA5 immunoprecipitates from transfected, treated COS-1 cells; format: cell-based, human; details: COS-1 cells
Description: In some experiments, the cells were treated for 60 min with 1 microM okadaic acid in 0.1% N,N-dimethylformamide (DMF) (Alexis Corp.), 50 microM BAPTA-AM (1,2-bis (o-aminophenoxy) ethane-N,N,N′,N′-tetraacetic acid tetra (acetoxy-methyl)ester) in 0.1% diimethylsulfoxide (DMSO; Sigma), or 20 microM thapsigargin in 0.1% DMSO (Alomone) 24 hours after transfection.
Transfected and treated COS-1 cells were washed once with ice-cold PBS, and harvested by rubber policeman in 1 ml ice-cold PBS containing 1 mM Na3VO4 and 20 mM beta-glycerophosphate before lysis in 500 microliters of IP buffer (20 mM Tris-HCl pH 8.0, 150 mM NaCl, 1% Nonidet P-40, 10% glycerol, 1 mM Na3VO4, 20 mM beta-glycerolphosphate, 1 microM microcystin-LR, 50 mM NaF, 0.5 mM PMSF, 4 microM leupeptin, 1 mM benzamidine, and 1 tablet/10 ml IP of Complete protease inhibitors (Roche)). Lysates were centrifuged at 20 000 g for 20 min and triplicate aliquots (200 microg) of supernatant were precleared with protein A-Sepharose (Amersham Pharmacia Biotech) for 60 min and mixed subsequently for 3 h at 4° C. with 12CA5 antibody prebound to protein A-Sepharose (˜1 microg antibody bound to 2 microl beads). The beads were then washed twice with IP buffer, once for 10 min with IP buffer containing 1 M NaCl, once again for 10 min with IP buffer, and finally twice with 20 mM Tris-HCl pH 7.5 containing 4 microM leupeptin and 1 mM benzamidine. […] After 60 min incubation at 30° C., 15 microliters of supernatant were removed, and phosphate incorporation into the substrate peptide determined as described for GST-NDR1 above. […]
To test whether hMOB1 plays a role in NDR activation, myc-hMOB1 or the empty vector was cotransfected with HA-NDR1 in COS1 cells and treated with OA. […] The reactions were resolved on a 10% SDS PAGE and the radioactivity visualised by using a phosphoimager.

GST-NDR1 = GST-NDR1 kinase assay (peptide kinase assay); format: biochemical, human
Description: 1 microgram of purified recombinant GST-NDR1 wild type and mutants (without further treatment or autophosphorylated for 2 h in the presence or absence of 1 mM CaCl2 and […] (Sigma)) were assayed in 20 microliter of reaction mixture containing 20 mM Tris-HCl pH 7.5, 10 mM MgCl2, 1 mM DTT, 100 microM [gamma-^32P]ATP (˜0.5 microCi/microliter), and 1 mM NDR1 substrate peptide ([…]; SEQ ID NO:22). After 30 mins incubation at 30° C., reactions were stopped with 50 mM EDTA, and 10 microliters of reaction mixture were spotted onto 2 cm^2 squares of P81 phosphocellulose paper (Whatman). These were subsequently washed for 4×5 min and 3×20 min in 1% phosphoric acid and once in acetone before counting in a liquid scintillation counter. One unit of NDR1 activity was defined as the amount which catalyses the phosphorylation of 1 nmol peptide substrate in 1 min.
Specific activity of GST-NDR1 mutants was also measured by a peptide kinase assay as described above. For this purpose, 1 microgram of purified GST-NDR1 wild type and alanine mutants were left without further treatment or autophosphorylated for 2 h in the presence or absence of 1 mM CaCl2 and […].

myc-hMOB1 = assay: Co-immunoprecipitation of HA-NDR and myc-hMOB1 from COS-1 cells; format: binding, human; details: COS-1 cells treated with OA prior to lysis
Description: HA-tagged hNDR and myc-tagged hMOB1 were cotransfected in COS1 cells, which were stimulated with okadaic acid or solvent alone. After cell lysis and extract preparation, HA-NDR was immunoprecipitated and co-immunoprecipitated myc-hMOB1 detected or Myc-hMOB1 was immunoprecipitated and co-immunoprecipitated HA-NDR detected.
HA-NDR, wt and mutants, and myc-hMOB1 were cotransfected into COS-1 cells and the cells were treated with OA prior to lysis. HA-NDR was immunoprecipitated and the coimmunoprecipitated myc-hMOB1 detected. […] Furthermore, the two important in vivo phosphorylation sites of NDR, serine-281 in the activation segment and the hydrophobic motif site threonine-444 in the C-terminal regulatory domain were tested, as well as the threonine 74 site in the N-terminal regulatory domain, for their role in NDR-MOB interaction.
HA-NDR N-terminal point mutants and myc-mob1 were co-transfected into COS1 cells which were treated with OA prior to lysis. HA-NDR mutants were immunoprecipitated and coimmunoprecipitated myc-hMOB1 detected.
In this Example, the effect of treatment of COS1 cells with BAPTA-AM on the NDR-MOB Interaction was determined. […] HA-NDR was immunoprecipitated and co-immunoprecipitated myc-MOB1 detected. The kinase activity of the HA-NDR immunoprecipitates was measured in a peptide kinase assay.

B1: S281A: NDR1 alanine mutant of phosphorylation residue Ser281; GST fusion or HA-tagged (protein)
chain: MAMTGSTPCSSMSNHTKERVTMTKVTLENFYSNLIAQHEEREMRQKKLEKVMEEEGLKDEEKRLRRSAHARKETEFLRLKRTRLGLEDFESLKVIGRGAFGEVRLVQKKDTGHVYAMKILRKADMLEKEQVGHIRAERDILVEADSLWVVKMFYSFQDKLNLYLIMEFLPGGDMMTLLMKKDTLTEEETQFYIAETVLAIDSIHQLGFIHRDIKPDNLLLDSKGHVKLSDFGLCTGLKKAHRTEFYRNLNHSLPSDFTFQNMNSKRKAETWKRNRRQLAFATVGTPDYIAPEVFMQTGYNKLCDWWSLGVIMYEMLIGYPPFCSETPQETYKKVMNWKETLTFPPEVPISEKAKDLILRFCCEWEHRIGAPGVEEIKSNSFFEGVDWEHIRERPAAISIEIKSIDDTSNFDEFPESDILKPTVATSNHPETDYKNKDWVFINYTYKRFEGLTARGAIPSYMKAAK
modifications: left off: small tags and cut ends
notes: NDR1 alanine mutant of phosphorylation residue Ser281; GST fusion or HA-tagged
- kinase activity of HA-NDR1 variants, +OA (HA-NDR1; 1 microM okadaic acid 1 h): 0.1113
- kinase activity of HA-NDR1 variants, −OA (HA-NDR1; solvent alone 1 h): 0.0357
- Specific activity of GST-NDR1 variants, −S100B (GST-NDR1; autophosphorylated 2 h in the absence of CaCl2 and S100B): 0.514
- Specific activity of GST-NDR1 variants, +S100B (GST-NDR1; autophosphorylated 2 h in the presence of 1 mM CaCl2 and 10 mM bovine S100B): 0.952
- kinase activity of GST-NDR1 mutant (in words) (GST-NDR1; compared with wild type): almost undetectable
- Specific activity of GST-NDR1 variants, CTRL (GST-NDR1; left without further treatment): 0.16
- interaction of HA-NDR variant with myc-hMOB1 (myc-hMOB1): still interact with MOB1
